What is called stoichiometry N is the number of molecules, sites or subunits per partner or assembly. The Kd is the constant that tells how readily two partners part at equilibrium.

Assay [1] has as its target Full-length LayV-G (Langya henipavirus attachment glycoprotein G) (Langya henipavirus (LayV)). The assay can be described thus: cryo-EM structure.
Assay [2] deals with LayV-G extracellular domain (Langya henipavirus attachment glycoprotein G, residues 63-624) (Langya henipavirus (LayV)). The assay can be described thus: SEC + other: non-reducing and reducing SDS-PAGE.
Assay [3] addresses T1, human ephrinB2 extracellular domain (amino acids 1-227) (human, UniProt P52799 28-227).
T1 chain: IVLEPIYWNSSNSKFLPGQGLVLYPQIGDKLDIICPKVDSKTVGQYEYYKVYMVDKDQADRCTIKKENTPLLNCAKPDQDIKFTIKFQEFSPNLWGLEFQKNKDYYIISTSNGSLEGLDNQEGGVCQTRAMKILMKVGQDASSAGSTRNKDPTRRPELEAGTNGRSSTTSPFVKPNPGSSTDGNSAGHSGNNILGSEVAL
Kind of assay: BLI. (In general: In BLI a coated tip is dipped into the sample, and binding shifts an interference pattern.)

Assay [4] concerns the target T2, human ephrinB3 extracellular domain (amino acids 1-224) (human, UniProt Q15768 28-224).
T2 chain: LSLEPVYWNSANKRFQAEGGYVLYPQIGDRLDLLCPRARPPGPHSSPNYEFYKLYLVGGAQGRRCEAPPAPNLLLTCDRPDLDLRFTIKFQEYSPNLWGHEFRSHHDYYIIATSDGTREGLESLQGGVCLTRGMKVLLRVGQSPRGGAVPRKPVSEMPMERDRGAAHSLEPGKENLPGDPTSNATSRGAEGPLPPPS
Kind of assay: BLI.

“Full-length LayV-G (Langya henipavirus attachment glycoprotein G) (natural protein)”: the stoichiometry N in assay [1] came to 4.
Consider “LayV-G extracellular domain (Langya henipavirus attachment glycoprotein G, residues 63-624) (domain or fragment)”, for which the stoichiometry N in assay [2] was determined as 4.

B1: NiV-G ectodomain (Nipah virus attachment glycoprotein G) (domain or fragment)
chain: QNYTRSTDNQAVIKDALQGIQQQIKGLADKIGTEIGPKVSLIDTSSTITIPANIGLLGSKISQSTASINENVNEKCKFTLPPLKIHECNISCPNPLPFREYRPQTEGVSNLVGLPNNICLQKTSNQILKPKLISYTLPVVGQSGTCITDPLLAMDEGYFAYSHLERIGSCSRGVSKQRIIGVGEVLDRGDEVPSLFMTNVWTPPNPNTVYHCSAVYNNEFYYVLCAVSTVGDPILNSTYWSGSLMMTRLAVKPKSNGGGYNQHQLALRSIEKGRYDKVMPYGPSGIKQGDTLYFPAVGFLVRTEFKYNDSNCPITKCQYSKPENCRLSMGIRPNSHYILRSGLLKYNLSDGENPKVVFIEISDQRLSIGSPSKIYDSLGQPVFYQASFSWDTMIKFGDVLTVNPLVVNWRNNTVISRPGQSQCPRFNTCPEICWEGVYNDAFLIDRINWISAGVFLDSNQTAENPVFTVFKDNEILYRAQLASEDTNAQKTITNCFLLKNKIWCISLVEIYDTGDNVIRPKLFAVKIPEQCT
For the molecule B1, the Kd in assay [3] is 0.19 nM; in assay [4], 9.3 nM.

Values taken from publication PMC10821904 (2024).
